Experimental data: patent US20020173477A1

Biological target: human Cε-containing IgE in serum of Hu-IgE transgenic mice (human Cε region and the H chain V region of the murine Mab BAT123) (human) (UniProt P01854)
Assay: cell-based or functional assay

Substance: Hu-901 (mCγ2a,κ), intact anti-IgE antibody with humanized variable regions and murine constant regions (from UniProt P01863 1-330)
- IgE suppression in Hu-IgE transgenic mice infected with Ad-Hu-901 (mCγ2a,κ), day 4 post infection (free IgE ELISA): 40 to 90%
